Test results taken from article doi:10.1101/2021.08.08.455546.

Target: Human GRLBD-F602S (520-778), glucocorticoid receptor ligand binding domain (human) (UniProt P04150)
UniProt P04150, sequence (P04150 520-777 F602S): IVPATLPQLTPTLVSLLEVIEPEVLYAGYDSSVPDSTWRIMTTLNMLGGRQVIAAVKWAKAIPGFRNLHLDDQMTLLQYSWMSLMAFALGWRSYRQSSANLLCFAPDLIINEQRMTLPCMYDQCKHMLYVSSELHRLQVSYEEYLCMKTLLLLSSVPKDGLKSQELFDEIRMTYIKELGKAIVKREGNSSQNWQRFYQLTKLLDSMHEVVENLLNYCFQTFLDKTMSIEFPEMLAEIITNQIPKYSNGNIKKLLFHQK

- relaxation energy of the GRLBD chain with hHsp90 in absence of ATP: 42 KBT
Substance: Human Hsp90β (from UniProt P08238 1-724) (natural protein)
